According to IntAct's records for PubMed 20133654:

B1: Obscurin-like protein 1 (Homo sapiens), O75147 (parent)
chain: MKASSGDQGSPPCFLRFPRPVRVVSGAEAELKCVVLGEPPPVVVWEKGGQQLAASERLSFPADGAEHGLLLTAALPTDAGVYVCRARNAAGEAYAAAAVTVLEPPASDPELQPAERPLPSPGSGEGAPVFLTGPRSQWVLRGAEVVLTCRAGGLPEPTLYWEKDGMALDEVWDSSHFALQPGRAEDGPGASLALRILAARLPDSGVYVCHARNAHGHAQAGALLQVHQPPESPPADPDEAPAPVVEPLKCAPKTFWVNEGKHAKFRCYVMGKPEPEIEWHWEGRPLLPDRRRLMYRDRDGGFVLKVLYCQAKDRGLYVCAARNSAGQTLSAVQLHVKEPRLRFTRPLQDVEGREHGIAVLECKVPNSRIPTAWFREDQRLLPCRKYEQIEEGTVRRLIIHRLKADDDGIYLCEMRGRVRTVANVTVKGPILKRLPRKLDVLEGENAVLLVETLEAGVEGRWSRDGEELPVICQSSSGHMHALVLPGVTREDAGEVTFSLGNSRTTTLLRVKCVKHSPPGPPILAEMFKGHKNTVLLTWKPPEPAPETPFIYRLERQEVGSEDWIQCFSIEKAGAVEVPGDCVPSEGDYRFRICTVSGHGRSPHVVFHGSAHLVPTARLVAGLEDVQVYDGEDAVFSLDLSTIIQGTWFLNGEELKSNEPEGQVEPGALRYRIEQKGLQHRLILHAVKHQDSGALVGFSCPGVQDSAALTIQESPVHILSPQDRVSLTFTTSERVVLTCELSRVDFPATWYKDGQKVEESELLVVKMDGRKHRLILPEAKVQDSGEFECRTEGVSAFFGVTVQDPPVHIVDPREHVFVHAITSECVMLACEVDREDAPVRWYKDGQEVEESDFVVLENEGPHRRLVLPATQPSDGGEFQCVAGDECAYFTVTITDVSSWIVYPSGKVYVAAVRLERVVLTCELCRPWAEVRWTKDGEEVVESPALLLQKEDTVRRLVLPAVQLEDSGEYLCEIDDESASFTVTVTEPPVRIIYPRDEVTLIAVTLECVVLMCELSREDAPVRWYKDGLEVEESEALVLERDGPRCRLVLPAAQPEDGGEFVCDAGDDSAFFTVTVTAPPERIVHPAARSLDLHFGAPGRVELRCEVAPAGSQVRWYKDGLEVEASDALQLGAEGPTRTLTLPHAQPEDAGEYVCETRHEAITFNVILAEPPVQFLALETTPSPLCVAPGEPVVLSCELSRAGAPVVWSHNGRPVQEGEGLELHAEGPRRVLCIQAAGPAHAGLYTCQSGAAPGAPSLSFTVQVAEPPVRVVAPEAAQTRVRSTPGGDLELVVHLSGPGGPVRWYKDGERLASQGRVQLEQAGARQVLRVQGARSGDAGEYLCDAPQDSRIFLVSVEEPLLVKLVSELTPLTVHEGDDATFRCEVSPPDADVTWLRNGAVVTPGPQVEMAQNGSSRILTLRGCQLGDAGTVTLRAGSTATSARLHVRETELLFLRRLQDVRAEEGQDVCLEVETGRVGAAGAVRWVRGGQPLPHDSRLSMAQDGHIHRLFIHGVILADQGTYGCESHHDRTLARLSVRPRQLRVLRPLEDVTISEGGSATFQLELSQEGVTGEWARGGVQLYPGPKCHIHSDGHRHRLVLNGLGLADSGCVSFTADSLRCAARLIVREVPVTIVRGPHDLEVTEGDTATFECELSQALADVTWEKDGNALTPSPRLRLQALGTRRLLQLRRCGPSDAGTYSCAVGTARAGPVRLTVRERTVAVLSELRSVSAREGDGATFECTVSEVETTGRWELGGRPLRPGARVRIRQEGKKHILVLSELRAEDAGEVRFQAGPAQSLALLEVEALPLQMCRHPPREKTVLVGRRAVLEVTVSRSGGHVCWLREGAELCPGDKYEMRSHGPTHSLVIHDVRPEDQGTYCCQAGQDSTHTRLLVEGN

Variants of: B1
Conditions: with titin_human TTN

| effect of a mutation on the interaction | Variant |
| --- | --- |
| decreasing interaction | F17R |
